Target: GST-TrbBWT (not stated | E. coli F plasmid) (UniProt P18035)
Test: SEC-MALS; SEC-MALS-SAXS; Superdex 200 10/300 Increase, 0.6 mL/min, 5.5 mg/mL loaded, 20 mM HEPES pH 7.0, 100 mM NaCl, 5% glycerol, 0.05% NP40, 20 °C

GST-TrbBWT (from UniProt P18035 23-181) was tested. Which stoichiometry N did it give?
The stoichiometry N was 2.
